Experimental data from publication PMC12623338.

Tested on: T1, CrsR (response regulator of CrsRK) (Actinosynnema pretiosum X47), ORF:a04a2703
T1 sequence: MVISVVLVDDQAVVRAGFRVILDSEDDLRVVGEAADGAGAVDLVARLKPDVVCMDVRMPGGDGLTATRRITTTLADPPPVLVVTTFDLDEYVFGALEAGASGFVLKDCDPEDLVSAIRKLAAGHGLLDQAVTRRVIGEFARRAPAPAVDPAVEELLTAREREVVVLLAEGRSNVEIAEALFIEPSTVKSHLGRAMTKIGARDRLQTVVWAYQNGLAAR
Assay: EMSA
Details: EMSA: 50-100 fmol probe, 0.5-1 ug CrsR, binding buffer with poly(dI-dC) (salt and pH not stated), 20 min at room temperature, 8% native PAGE; protein dialyzed …

Sequence	binding
GGTCGGGCACCAGGAACACCTCGCAGAGCGCAAAGACGTGAGTGGACGGTGCGATTGTGCTGACGGCCTGACCCCGGTGGTGGGGACCGCGGCGAACCGGCTGAACGCAGGGGGGACCTAGGGGGGCGTCAGGGGGTTGGGGGGCTCTTCCGGCCGCCGTTAGCTTCGGGCCGCGCACCGGCCCCCGGAGAGCGCGCCGGACCGAGAGCAGAGACGAGGGCGACCGACCGTGCACCTGAAGGCCCCGCAGAAGCT (double strand) [asm24 promoter probe]	no binding
ACTCGGTCGCCGTGGTCATGGCTACAGCCAACAACCTCGACCATGGTGGAGGTCAACAGTAAGGTTGAGCTGGTGAGCAAGTTGCCGGAGATGTTGACCATCGGCCAGGTCGCCGAGCGCAGCGGGGTGCCCCACACGGCGCTGCGGTTCTACGAGGAGCGCGGGCTGATCGCCTCGGAGCGCACGGCGGGCAACCAGCGCCGCTACCCCAGGCACGTGCTGCGCAGGCTCGCGTTCATCCGCACCGCGCAGCGGGTCGGGCTGAGCCTGGAGGAGGTGCG (double strand) [asm13 promoter probe (asm13-15, asm10-12)]	no binding
CCGGTTCCCGTTCATCCAATTGTGCGCACGACCGCGCCGCCGTGCCCGCGTGCTGCGGTGATGGCCTGGGAACAGGGGGGATTAGGGGGAGGTCAAGGGGGTTGGTCGGGATCTGCGGAATCGGTAGCGTCGAATTCCGAAAGCCGGCCGCGGTGAATTCCCCCGCGCCATTTCCGCGAACGACGGGACAGGGGCTCATGGGCA (double strand) [asm43 promoter probe (asm43-44)]	binds
CGGACAGACCGATCCCCGAGTCGTGCGGGCCCGAGCCGTGGACGCGCGGGCCGTGGACGCGCGAGCCGCGACCGCCGCCCCCACGACCGCCGCCCCCACGACCGCCGCTCCGGCGACCACTGCTCCGGCGACCGCCGCTCCGGCGACCGCCGCTCCGGCGACCGCCGCTCCGGCGACCGCCGCCCCCACGACCACTCCTCCGCGCCCCCGCGTCCCCCAGGCCCCCGCGCCCCACCGGCACGTTCCGGGCGCGACCTACGACCGGGCCGTGCTGTTCGACCTCGACGGG (double strand) [asm45 promoter probe (asm45-47)]	binds
CGGTCCACCAGCCGCATCCCTCGCCTCCCCCGCGTCCGCCCCGCCGACCTTCAGGCATGTCAACAGCCCTGTCAGTCGTCTTGTCCACGCCCCGACCACCGCACCCCCACTGGCCGCCCACCCGCGCCGGGAAAACCACGAAGTCCCCTGCCGCGCGGGCGTCCCAGGTCGGACACTCCTGAGCGCACCCCCGCACCCGTTCCAGGAGGC (double strand) [asm7 promoter probe]	no binding
TGACGGCGTCGGGTGAGGCCGCCGCTGGCCCTGGGACGGCGCTGCGCGCCCCCTCGGACCCACCGGAGCCGCCACCACCGCTTGTCCCCTTCCACCGGGTGGGGCGCGGTCGGTAATCCGGCGGCAATTCCTTCCCCCGTCCGGGCTAGCCAGGCCCGTGCGCCCGCGTCGCGCACGGGCCAAGGTGGGTGGCTGCGCGGATGACCGGGCCCCCGAACCGGATGTGGGAGAGATGCTGCGAAGCGAC (double strand) [asmA promoter probe]	no binding
GGAGGGACGAGCGGAGACCGGGTCGCGGGACTCCACTTCGGACGGTAGGGCACGCGGGCGCCGTTGGCAGTTGCCGCTTCCACGGCTGGCGAACAAAGCGGTAATCCCTTGCGCCACAGGCGATTGACACCCCGGCGAGGCCCTGGTTTCACTGCTGTCCGCACGTCACCGGCGCGAGGAGGCCCCCGTGAAGTACATGCTGCTCATCCAC (double strand) [asm21 promoter probe]	binds
